Measurements: patent publication US20240225985A1, “BRIGHTENING COMPOSITIONS AND METHODS OF USE” (Alastin Skincare, Inc., priority 2021, published 2024)
Entries after “also recorded” stand apart in the source; their conditions may differ.

What was measured:
[1] = system: melanocytes; assay: Gene expression study (RNA sequencing) in PGE2-induced melanocytes; assay type: cell-based, human; settings: melanocytes induced with 10 uM PGE2; 24 hours of compound exposure
Experimental: Four cell types associated with pigmentation pathways—melanocytes, keratinocytes, fibroblasts and endothelial (HUVEC) cells—were analyzed for gene expression.
To simulate the UV stimulatory pigmentation pathway process, melanocytes were pre-treated with PGE2, a normal direct consequence of UV light exposure usually emanating from exposed keratinocytes. After the 48 hour attachment culture, these melanocytes were induced with 10 uM PGE2 in melanocyte media for 24 hrs. The four primary human adult dermal cell lines were cultured and plated in well plates in triplicate and then treated with 11 different compound treatments (plus DMSO control). After 48 hours of attachment culture, the remaining fibroblasts, HUVECs and keratinocytes were treated with the test compounds listed in Table 8.
After 24 hours of compound exposure, RNA lysate preparation was carried out and samples were shipped to MedGenome for RNA extraction, library construction and sequencing to 25M paired end 100 bp reads per sample. Library prep and sequencing was completed at MedGenome.

[2] = system: melanocytes; assay: In vitro melanocyte comparative analysis via absorbance readings (melanin production); assay type: cell-based; settings: for Absorbance 405 nm / Absorbance 490 nm / Absorbance 492 nm: 4 days, control = 0.0 row
Experimental: Melanocytes were cultured in 6-well plates containing growth media. Once confluent, 2 concentrations of each of the 10 compounds were added to the cells in triplicate wells for 4 days. There were a total of eleven 6-well plates, one for each compound treatment and one for the vehicle control. Absorbance readings were taken on the lysates prepared for each well of the 6-well plates, normalizing for cells counts. The model was initially tested for accuracy and validated using hexapeptide-12 in view of strong gene expression results with melanocyte cell line in the first study—confirmation of decreased stimulation was obtained. Additional validation was carried out using MSH addition to media to confirm increased stimulation of melanin production. The following compounds used in this study are seen in Table 9.

[3] = system: hTERT-immortalized dermal melanocytes; assay: Melanocyte assay, daily inspection of cell morphology; assay type: cell-based, human; settings: both concentrations of Table 11; five-day dosing period
Experimental: Once the melanocytes were 100% confluent in 6-well plates, the melanocyte growth media was removed and the melanocytes were treated with media containing the above compounds; duplicate wells for each compound/concentration listed above. The duplicate vehicle control wells were fed melanocyte growth media only or melanocyte growth media with DMSO (10 uL per 10 mL melanocyte growth media).
The cells were fed the appropriate media for the next 5 days. Each day, the cells were inspected for morphology.

[4] = system: endothelial cells; assay: Gene expression of PMEL, tyrosinase genes, MC1/4R, EDNRB, MITF, ERK1/2, JNK, AKT1; assay type: cell-based; settings: after treatment of endothelial cells
Text: The methods similar to Examples 3-4 were used to measure expression of PMEL, tyrosinase genes, MC1/4R, EDNRB, MITF, ERK1/2, JNK, and ANKT1.
FIGS. 10A-10D illustrates the expression of PMEL (FIG. 10A), Tyrosinase genes (FIG. 10B), MC1/4R (FIG. 10C), and EDNRB (FIG. 10D) after treatment of endothelial cells with lactoferrin (Lacto), peptide derived from lactoferrin (TCV), hexapeptide-12 (Hex12), tripeptide-1 and hexapeptide-12 (TriHex), hexapeptide-11 (Hex11), tranexamic acid (Tran acid) octapeptide (Octa), phosphatidylserine (phos), Cannabidiol (CBD), and all (total).
MITF is regulated by phosphorylation. Specifically, the MAPK and Akt pathways are known to phosphorylate MITF at certain sites. FIGS. 12A-12C illustrate the expression of ERK1/2 (MAPK3/MAPK1) (FIG. 12A), JNK (FIG. 12B), AKT1 (FIG. 12C) after treatment of endothelial cells with lactoferrin (Lacto), peptide derived from lactoferrin (TCV), hexapeptide-12 (Hex12), tripeptide-1 and hexapeptide-12 (TriHex), hexapeptide-11 (Hex11), octapeptide (Octa), phosphatidylserine (phos), Cannabidiol (CBD), and all (total).

[5] = higher concentration (Lactoferrin 1000, HEX-11 200, Phosphatidylserine 500, Silymarin 20, Sesamol 100, Tranexamic Acid 1000, HEX-12 4.9, ug/mL or ug/uL; Phytoene/Phytofluene 5.00%)
[6] = lower concentration (Lactoferrin 500, HEX-11 100, Phosphatidylserine 250, Silymarin 10, Sesamol 50, Tranexamic Acid 500, HEX-12 2.9, ug/mL or ug/uL; Phytoene/Phytofluene 2.50%)

B1: Lactoferrin: 80 kDa iron binding glycoprotein of the transferrin family (protein)
chain: APRKNVRWCTISQPEWFKCRRWQWRMKKLGAPSITCVRRAFALECIRAIAEKKADAVTLDGGMVFEACRDPYKLRPVAAEIYGTKESPQTHYYAVAVVKKGSNFQLDQLQGRKSCHTGLGRSAGWIIPMGILRPYLSWTESLEPLQGAVAKFFSASCVPCIDRQAYPNLCQLCKGEGENQCACSSREPYFGYSGAFKCLQDGAGDVAFVKETTVFENLPEKADRDQYELLCLNNSRAPVDAFKECHLAQVPSHAVVARSVDGKEDLIWKLLSKAQEKFGKNKSRSFQLFGSPPGQRDLLFKDSALGFLRIPSKVDSALYLGSRYLTTLKNLRETAEEVKARYTRVVWCAVGPEEQKKCQQWSQQSGQNVTCATASTTDDCIVLVLKGEADALNLDGGYIYTAGKCGLVPVLAENRKSSKHSSLDCVLRPTEGYLAVAVVKKANEGLTWNSLKDKKSCHTAVDRTAGWNIPMGLIVNQTGSCAFDEFFSQSCAPGADPKSRLCALCAGDDQGLDKCVPNSKEKYYGYTGAFRCLAEDVGDVAFVKNDTVWENTNGESTADWAKNLNREDFRLLCLDGTRKPVTEAQSCHLAVAPNHAVVSRSDRAAHVKQVLLHQQALFGKNGKNCPDKFCLFKSETKNLLFNDNTECLAKLGGRPTYEEYLGTEYVTAIANLKKCSTSPLLEACAFLTR
melanogenic gene activity in melanocytes [1]: particularly dominant in melanogenic activity; also recorded: significant effects on melanogenesis activity
Absorbance 405 nm [2, 5]: 0.519
Absorbance 490 nm [2, 5]: 0.312
Absorbance 492 nm [2, 5]: 0.226
Absorbance 405 nm [2, 6]: 0.509
Absorbance 490 nm [2, 6]: 0.334
Absorbance 492 nm [2, 6]: 0.217
Regulation of melanogenesis (decreased absorption denoting decreased melanin formation) ([2]; melanocytes, summary of Table 10): Regulation of melanogenesis was observed
melanocyte morphology / survival on daily inspection [3]: developed a circular morphology rather the normal webbed morphology 24 hour post-initial dosing; also recorded: at 48 hours post-initial dosing, the melanocytes returned to normal morphology
melanogenic activity (expression of PMEL, tyrosinase genes, MC1/4R, EDNRB, kinases) [4]: robust melanogenic activity; also recorded: significant effects on such melanogenic activity
